Data from the supplement of paper PMC9112550, “Optimization of the antimicrobial peptide Bac7 by deep mutational scanning” (BMC Biology, 2022).

Test system: Escherichia coli TOP10
Assay: shrunken log2 fold change of peptide-encoding DNA abundance (4.5 h post-induction vs induction); higher = less antimicrobial activity (less host growth inhibition)
Settings: time post-induction: 4.5 h; library: site-saturation at positions 5, 18, 19, 20
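Also: peptides expressed intracellularly from a pBAD plasmid library in pooled LB shake-flask culture, induced with 0.3% L-arabinose, DNA abundance read by NGS, three biological replicates, DESeq2 with apeglm shrinkage.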

## RRIRVRPPRLPRPRPRPLWCPRP
  shrunken log2 fold change: -0.303

## RRIRPRPPRLPRPRPRPHKFPRP
  shrunken log2 fold change: -0.547

## RRIRYRPPRLPRPRPRPGTVPRP
  shrunken log2 fold change: 0.0427

## RRIRCRPPRLPRPRPRPWQCPRP
  shrunken log2 fold change: -0.0231

## RRIRIRPPRLPRPRPRPPNAPRP
  shrunken log2 fold change: -0.0573

## RRIRVRPPRLPRPRPRPKSPPRP
  shrunken log2 fold change: 0.272

## RRIRWRPPRLPRPRPRPSYVPRP
  shrunken log2 fold change: -0.651

## RRIRLRPPRLPRPRPRPQPFPRP
  shrunken log2 fold change: -1.07

## RRIRFRPPRLPRPRPRPDMPPRP
  shrunken log2 fold change: -0.016

## RRIRFRPPRLPRPRPRPQGCPRP
  shrunken log2 fold change: -0.13

## RRIRGRPPRLPRPRPRPAHTPRP
  shrunken log2 fold change: 0.761

## RRIRIRPPRLPRPRPRPSIMPRP
  shrunken log2 fold change: -0.469

## RRIRDRPPRLPRPRPRPPWNPRP
  shrunken log2 fold change: -0.0258

## RRIRWRPPRLPRPRPRPNLPPRP
  shrunken log2 fold change: -0.101

## RRIRMRPPRLPRPRPRPPTSPRP
  shrunken log2 fold change: 1.23

## RRIRTRPPRLPRPRPRPLMCPRP
  shrunken log2 fold change: -0.151

## RRIRKRPPRLPRPRPRPMPHPRP
  shrunken log2 fold change: 0.274

## RRIRPRPPRLPRPRPRPCIDPRP
  shrunken log2 fold change: -0.742

## RRIRERPPRLPRPRPRPGHHPRP
  shrunken log2 fold change: -0.261

## RRIRSRPPRLPRPRPRPWFWPRP
  shrunken log2 fold change: 0.326

## RRIRIRPPRLPRPRPRPYGTPRP
  shrunken log2 fold change: -0.894

## RRIRFRPPRLPRPRPRPEHRPRP
  shrunken log2 fold change: 0.105

## RRIRYRPPRLPRPRPRPSDYPRP
  shrunken log2 fold change: -1.34

## RRIRDRPPRLPRPRPRPAYLPRP
  shrunken log2 fold change: -0.011

## RRIRLRPPRLPRPRPRPPCPPRP
  shrunken log2 fold change: 0.316

## RRIRLRPPRLPRPRPRPWRYPRP
  shrunken log2 fold change: -0.268

## RRIRFRPPRLPRPRPRPEQPPRP
  shrunken log2 fold change: 0.0505

## RRIRWRPPRLPRPRPRPAENPRP
  shrunken log2 fold change: 0.568

## RRIRRRPPRLPRPRPRPSTLPRP
  shrunken log2 fold change: -0.174

## RRIRLRPPRLPRPRPRPVGMPRP
  shrunken log2 fold change: -0.0033

## RRIRVRPPRLPRPRPRPGAWPRP
  shrunken log2 fold change: 0.323

## RRIRWRPPRLPRPRPRPHHCPRP
  shrunken log2 fold change: -0.239

## RRIRTRPPRLPRPRPRPHTHPRP
  shrunken log2 fold change: -0.873

## RRIRNRPPRLPRPRPRPQQFPRP
  shrunken log2 fold change: -0.0018

## RRIRLRPPRLPRPRPRPGAIPRP
  shrunken log2 fold change: 0.0769

## RRIRVRPPRLPRPRPRPLSYPRP
  shrunken log2 fold change: -0.18

## RRIRHRPPRLPRPRPRPKGQPRP
  shrunken log2 fold change: -0.00141

## RRIRLRPPRLPRPRPRPYEVPRP
  shrunken log2 fold change: -0.0159

## RRIRGRPPRLPRPRPRPNRLPRP
  shrunken log2 fold change: 0.104

## RRIRRRPPRLPRPRPRPSTRPRP
  shrunken log2 fold change: 0.194

## RRIRPRPPRLPRPRPRPSGQPRP
  shrunken log2 fold change: -0.0898

## RRIRQRPPRLPRPRPRPVYRPRP
  shrunken log2 fold change: -0.308

## RRIRMRPPRLPRPRPRPAQKPRP
  shrunken log2 fold change: 1.2

## RRIRQRPPRLPRPRPRPKYAPRP
  shrunken log2 fold change: -0.285

## RRIRPRPPRLPRPRPRPGPFPRP
  shrunken log2 fold change: 0.574

## RRIRQRPPRLPRPRPRPLMWPRP
  shrunken log2 fold change: 0.0648

## RRIRMRPPRLPRPRPRPGTCPRP
  shrunken log2 fold change: 0.851

## RRIRQRPPRLPRPRPRPDWCPRP
  shrunken log2 fold change: -0.229

## RRIRQRPPRLPRPRPRPNMVPRP
  shrunken log2 fold change: -0.0131

## RRIRVRPPRLPRPRPRPITFPRP
  shrunken log2 fold change: -0.0498

## RRIRDRPPRLPRPRPRPKTMPRP
  shrunken log2 fold change: -0.0184

## RRIRHRPPRLPRPRPRPEVGPRP
  shrunken log2 fold change: 0.0518

## RRIRVRPPRLPRPRPRPDINPRP
  shrunken log2 fold change: -0.00784

## RRIRIRPPRLPRPRPRPWIMPRP
  shrunken log2 fold change: -0.735

## RRIRERPPRLPRPRPRPTRAPRP
  shrunken log2 fold change: 0.571

## RRIRCRPPRLPRPRPRPVAWPRP
  shrunken log2 fold change: 0.163

## RRIRQRPPRLPRPRPRPTDYPRP
  shrunken log2 fold change: -0.116

## RRIRGRPPRLPRPRPRPTAKPRP
  shrunken log2 fold change: 1.92

## RRIRERPPRLPRPRPRPEYTPRP
  shrunken log2 fold change: -0.313

## RRIRTRPPRLPRPRPRPCRNPRP
  shrunken log2 fold change: -0.533

## RRIRMRPPRLPRPRPRPGLHPRP
  shrunken log2 fold change: 0.412

## RRIRDRPPRLPRPRPRPSCSPRP
  shrunken log2 fold change: -0.253

## RRIRFRPPRLPRPRPRPVLFPRP
  shrunken log2 fold change: -0.172

## RRIRNRPPRLPRPRPRPLTWPRP
  shrunken log2 fold change: -0.182

## RRIRMRPPRLPRPRPRPNCKPRP
  shrunken log2 fold change: 0.102

## RRIRVRPPRLPRPRPRPWDWPRP
  shrunken log2 fold change: 0.163

## RRIRGRPPRLPRPRPRPYMPPRP
  shrunken log2 fold change: -0.191

## RRIRWRPPRLPRPRPRPKPKPRP
  shrunken log2 fold change: -0.0893

## RRIRRRPPRLPRPRPRPLSTPRP
  shrunken log2 fold change: 0.021

## RRIRHRPPRLPRPRPRPTCKPRP
  shrunken log2 fold change: -0.015

## RRIRARPPRLPRPRPRPHQTPRP
  shrunken log2 fold change: -0.103

## RRIRNRPPRLPRPRPRPNFRPRP
  shrunken log2 fold change: 0.0289

## RRIRPRPPRLPRPRPRPMKPPRP
  shrunken log2 fold change: 0.00333

## RRIRYRPPRLPRPRPRPMVKPRP
  shrunken log2 fold change: -0.574

## RRIRVRPPRLPRPRPRPTGVPRP
  shrunken log2 fold change: 0.0149

## RRIRLRPPRLPRPRPRPVCGPRP
  shrunken log2 fold change: 0.227

## RRIRPRPPRLPRPRPRPPPRPRP
  shrunken log2 fold change: 0.91

## RRIRPRPPRLPRPRPRPSPAPRP
  shrunken log2 fold change: 0.209

## RRIRARPPRLPRPRPRPNMRPRP
  shrunken log2 fold change: 0.25

## RRIRGRPPRLPRPRPRPTNVPRP
  shrunken log2 fold change: 0.141

## RRIRVRPPRLPRPRPRPLIDPRP
  shrunken log2 fold change: 0.119

## RRIRQRPPRLPRPRPRPPDYPRP
  shrunken log2 fold change: 0.00906

## RRIRRRPPRLPRPRPRPHFSPRP
  shrunken log2 fold change: -0.187

## RRIRPRPPRLPRPRPRPRQLPRP
  shrunken log2 fold change: 0.247

## RRIRVRPPRLPRPRPRPKAEPRP
  shrunken log2 fold change: -0.00229

## RRIRKRPPRLPRPRPRPRFSPRP
  shrunken log2 fold change: 0.17

## RRIRERPPRLPRPRPRPQWIPRP
  shrunken log2 fold change: -0.0767

## RRIRIRPPRLPRPRPRPHHIPRP
  shrunken log2 fold change: -0.641

## RRIRNRPPRLPRPRPRPYHPPRP
  shrunken log2 fold change: -0.135

## RRIRKRPPRLPRPRPRPSCFPRP
  shrunken log2 fold change: 0.109

## RRIRIRPPRLPRPRPRPFVTPRP
  shrunken log2 fold change: -0.938

## RRIRWRPPRLPRPRPRPSNMPRP
  shrunken log2 fold change: -0.923

## RRIRIRPPRLPRPRPRPVWDPRP
  shrunken log2 fold change: -0.14

## RRIRTRPPRLPRPRPRPLCLPRP
  shrunken log2 fold change: -0.433

## RRIRDRPPRLPRPRPRPQMEPRP
  shrunken log2 fold change: 0.00785

## RRIRSRPPRLPRPRPRPSDKPRP
  shrunken log2 fold change: -0.351

## RRIRDRPPRLPRPRPRPAEKPRP
  shrunken log2 fold change: 0.0328

## RRIRKRPPRLPRPRPRPYLCPRP
  shrunken log2 fold change: -0.0593

## RRIRCRPPRLPRPRPRPTYKPRP
  shrunken log2 fold change: -0.267

## RRIRARPPRLPRPRPRPCYKPRP
  shrunken log2 fold change: -0.0942

## RRIRGRPPRLPRPRPRPEQVPRP
  shrunken log2 fold change: 0.995

## RRIRKRPPRLPRPRPRPGWKPRP
  shrunken log2 fold change: 0.0274

## RRIRRRPPRLPRPRPRPLPGPRP
  shrunken log2 fold change: 0.59

## RRIRRRPPRLPRPRPRPPYCPRP
  shrunken log2 fold change: 0.256

## RRIRIRPPRLPRPRPRPCPQPRP
  shrunken log2 fold change: -0.458

## RRIRMRPPRLPRPRPRPVYNPRP
  shrunken log2 fold change: -0.17

## RRIRMRPPRLPRPRPRPAWMPRP
  shrunken log2 fold change: 0.189

## RRIRQRPPRLPRPRPRPDGKPRP
  shrunken log2 fold change: 0.0269

## RRIRDRPPRLPRPRPRPQFVPRP
  shrunken log2 fold change: -0.0477

## RRIRPRPPRLPRPRPRPNQMPRP
  shrunken log2 fold change: -0.129

## RRIRARPPRLPRPRPRPAKEPRP
  shrunken log2 fold change: 0.521

## RRIRGRPPRLPRPRPRPSMDPRP
  shrunken log2 fold change: 0.0712

## RRIRLRPPRLPRPRPRPVNAPRP
  shrunken log2 fold change: 0.0227

## RRIRQRPPRLPRPRPRPYCPPRP
  shrunken log2 fold change: -0.422

## RRIRTRPPRLPRPRPRPAICPRP
  shrunken log2 fold change: -0.552

## RRIRKRPPRLPRPRPRPSPDPRP
  shrunken log2 fold change: 0.344

## RRIRNRPPRLPRPRPRPTGQPRP
  shrunken log2 fold change: -0.115

## RRIRPRPPRLPRPRPRPVDDPRP
  shrunken log2 fold change: 0.103

## RRIRTRPPRLPRPRPRPRSQPRP
  shrunken log2 fold change: 1.58

## RRIRYRPPRLPRPRPRPEREPRP
  shrunken log2 fold change: -0.0221

## RRIRHRPPRLPRPRPRPYTMPRP
  shrunken log2 fold change: -0.393

## RRIRGRPPRLPRPRPRPWRWPRP
  shrunken log2 fold change: 0.656

## RRIRHRPPRLPRPRPRPEAEPRP
  shrunken log2 fold change: 0.409

## RRIRQRPPRLPRPRPRPHGWPRP
  shrunken log2 fold change: -0.0188

## RRIRKRPPRLPRPRPRPKHEPRP
  shrunken log2 fold change: 0.134

## RRIRNRPPRLPRPRPRPHCEPRP
  shrunken log2 fold change: -0.778

## RRIRPRPPRLPRPRPRPPAGPRP
  shrunken log2 fold change: 0.506

## RRIRERPPRLPRPRPRPVFRPRP
  shrunken log2 fold change: -0.0125

## RRIRFRPPRLPRPRPRPHTIPRP
  shrunken log2 fold change: -0.745

## RRIRQRPPRLPRPRPRPGSPPRP
  shrunken log2 fold change: -0.232

## RRIRCRPPRLPRPRPRPPDTPRP
  shrunken log2 fold change: 0.269

## RRIRNRPPRLPRPRPRPNSLPRP
  shrunken log2 fold change: -0.335

## RRIRNRPPRLPRPRPRPSARPRP
  shrunken log2 fold change: 0.256

## RRIRFRPPRLPRPRPRPLEVPRP
  shrunken log2 fold change: 0.0238

## RRIRMRPPRLPRPRPRPNPWPRP
  shrunken log2 fold change: 0.123

## RRIRIRPPRLPRPRPRPTVDPRP
  shrunken log2 fold change: 0.11

## RRIRFRPPRLPRPRPRPFNPPRP
  shrunken log2 fold change: -0.733

## RRIRDRPPRLPRPRPRPMWLPRP
  shrunken log2 fold change: 0.015

## RRIRHRPPRLPRPRPRPNYLPRP
  shrunken log2 fold change: -0.114

## RRIRYRPPRLPRPRPRPLQGPRP
  shrunken log2 fold change: -0.0139

## RRIRIRPPRLPRPRPRPIKFPRP
  shrunken log2 fold change: -0.933

## RRIRIRPPRLPRPRPRPTMIPRP
  shrunken log2 fold change: -0.224

## RRIRARPPRLPRPRPRPYYGPRP
  shrunken log2 fold change: -0.363

## RRIRYRPPRLPRPRPRPEVVPRP
  shrunken log2 fold change: -0.219

## RRIRRRPPRLPRPRPRPHMYPRP
  shrunken log2 fold change: -0.272

## RRIRCRPPRLPRPRPRPHKAPRP
  shrunken log2 fold change: -0.253

## RRIRMRPPRLPRPRPRPNAWPRP
  shrunken log2 fold change: 0.774

## RRIRDRPPRLPRPRPRPSMKPRP
  shrunken log2 fold change: -0.198

## RRIRTRPPRLPRPRPRPEWFPRP
  shrunken log2 fold change: 0.0821

## RRIRIRPPRLPRPRPRPNNGPRP
  shrunken log2 fold change: -0.589
